Patent US20240066131A1 (Protagonist Therapeutics, Inc., priority 2020, published 2024)
Starred links: 1 amine or outer side, 2 acyl side, 3 side chain; linkers in the order of their positions; H or OH if unused. Non-standard residues stand in square brackets, D forms with d. Groups on a side chain read outwards from the residue. *: point of attachment. ButanoicP = (R)-4-(pyrrolidin-2-yl)butanoic acid, O=C(CCC[C@@H]1CCCN1[*:1])[*:2]; C18 diacid = O=C(O)CCCCCCCCCCCCCCCCC(=O)*; Dip = N[C@H](C(=O)O)C(c1ccccc1)c1ccccc1; Palmitoyl = CCCCCCCCCCCCCCCC(=O)*; NMeF = CN[C@@H](Cc1ccccc1)C(=O)O; β3hF = N[C@H](CC(=O)O)Cc1ccccc1; (n-hexyl)Gly = n-hexyl glycine; Tle = CC(C)(C)[C@H](N)C(=O)O; hLeu = CC(C)CC[C@H](N)C(=O)O; Isovaleryl = CC(C)CC(=O)*; (Me)Leu = methyl-leucine; AEEA = NCCOCCOCC(=O)O; Ahx = NCCCCCC(=O)O

T1: human ferroportin (SLC40A1) fused in frame with GFP, stably expressed in HEK293 cells (human, UniProt Q9NP59 1-571)
T1 sequence (looked up): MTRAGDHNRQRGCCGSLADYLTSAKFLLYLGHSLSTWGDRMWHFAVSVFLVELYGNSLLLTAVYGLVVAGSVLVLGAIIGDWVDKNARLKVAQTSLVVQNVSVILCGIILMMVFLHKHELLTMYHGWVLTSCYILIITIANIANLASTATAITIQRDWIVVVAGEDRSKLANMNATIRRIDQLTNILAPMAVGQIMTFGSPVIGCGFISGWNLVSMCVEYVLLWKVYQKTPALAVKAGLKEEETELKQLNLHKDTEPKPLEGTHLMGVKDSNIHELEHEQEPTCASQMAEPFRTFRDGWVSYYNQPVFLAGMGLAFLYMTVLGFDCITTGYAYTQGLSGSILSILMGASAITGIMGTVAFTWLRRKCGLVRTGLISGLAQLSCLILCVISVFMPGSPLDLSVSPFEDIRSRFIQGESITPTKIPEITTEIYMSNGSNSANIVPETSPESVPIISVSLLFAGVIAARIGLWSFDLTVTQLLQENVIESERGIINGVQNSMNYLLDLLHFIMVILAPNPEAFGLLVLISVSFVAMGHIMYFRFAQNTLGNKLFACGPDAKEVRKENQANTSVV


Target: T1, human ferroportin (SLC40A1) fused in …
Assay: cell-based or functional assay

Row | Binder | FPN EC50 [nM]
1 | Isovaleryl-LTH[Dip]PAIK([AEEA-AEEA-Ahx-C18 diacid])[β3hF][dK]-NH2 [Isovaleric Acid-L-T-H-[Dpa]-P-A-I-[Lys(1PEG2_1PEG2_Ahx_C18_Diacid)]-[bhPhe]-[(D)Lys]-NH2] | 65.7
2 | Isovaleryl-LTH[Dip]PAIK([Ahx-Palmitoyl])[(Me)Leu]-NH2 [Isovaleric Acid-L-T-H-[Dpa]-P-A-I-[Lys(Ahx_Palm)]-[(Me)Leu]-NH2] | 508
3 | Isovaleryl-RTH[Dip]PAIK([AEEA-AEEA-Ahx-C18 diacid])[β3hF][dK]-NH2 (SMILES CC[C@H](C)[C@H](NC(=O)[C@H](C)NC(=O)[C@@H]1CCCN1C(=O)[C@@H](NC(=O)[C@H](Cc1c[nH]cn1)NC(=O)[C@@H](NC(=O)[C@H](CCCNC(=N)N)NC(=O)CC(C)C)[C@@H](C)O)C(c1ccccc1)c1ccccc1)C(=O)N[C@@H](CCCCNC(=O)COCCOCCNC(=O)COCCOCCNC(=O)CCCCCNC(=O)CCCCCCCCCCCCCCCCC(=O)O)C(=O)N[C@H](CC(=O)N[C@H](CCCCN)C(N)=O)Cc1ccccc1) [Isovaleric Acid-R-T-H-[Dpa]-P-A-I-[Lys(1PEG2_1PEG2_Ahx_C18_Diacid)]-[bhPhe]-[(D)Lys]-NH2] | 48.5
4 | Isovaleryl-LTH[Dip]PLIK([Ahx-Palmitoyl])[(Me)Leu]-NH2 [Isovaleric Acid-L-T-H-[Dpa]-P-L-I-[Lys(Ahx_Palm)]-[(Me)Leu]-NH2] | 287
5 | Isovaleryl-LTH[Dip]PAIK([Ahx-Palmitoyl])[NMeF]-NH2 (SMILES CCCCCCCCCCCCCCCC(=O)NCCCCCC(=O)NCCCC[C@H](NC(=O)[C@@H](NC(=O)[C@H](C)NC(=O)[C@@H]1CCCN1C(=O)[C@@H](NC(=O)[C@H](Cc1c[nH]cn1)NC(=O)[C@@H](NC(=O)[C@H](CC(C)C)NC(=O)CC(C)C)[C@@H](C)O)C(c1ccccc1)c1ccccc1)[C@@H](C)CC)C(=O)N(C)[C@@H](Cc1ccccc1)C(N)=O) [Isovaleric Acid-L-T-H-[Dpa]-P-A-I-[Lys(Ahx_Palm)]-[(Me)Phe]-NH2] | 1750
6 | Isovaleryl-ETH[Dip]PAIK([Ahx-Palmitoyl])[β3hF]-NH2 (SMILES CCCCCCCCCCCCCCCC(=O)NCCCCCC(=O)NCCCC[C@H](NC(=O)[C@@H](NC(=O)[C@H](C)NC(=O)[C@@H]1CCCN1C(=O)[C@@H](NC(=O)[C@H](Cc1c[nH]cn1)NC(=O)[C@@H](NC(=O)[C@H](CCC(=O)O)NC(=O)CC(C)C)[C@@H](C)O)C(c1ccccc1)c1ccccc1)[C@@H](C)CC)C(=O)N[C@H](CC(N)=O)Cc1ccccc1) [Isovaleric Acid-E-T-H-[Dpa]-P-A-I-[Lys(Ahx_Palm)]-[bhPhe]-NH2] | 31.9
7 | Isovaleryl-ETH[Dip]PLIK([Ahx-Palmitoyl])[NMeF]-NH2 [Isovaleric Acid-E-T-H-[Dpa]-P-L-I-[Lys(Ahx_Palm)]-[(Me)Phe]-NH2] | 27.2
8 | Isovaleryl-LTH[Dip]PLIK([Ahx-Palmitoyl])[NMeF]-NH2 (SMILES CCCCCCCCCCCCCCCC(=O)NCCCCCC(=O)NCCCC[C@H](NC(=O)[C@@H](NC(=O)[C@H](CC(C)C)NC(=O)[C@@H]1CCCN1C(=O)[C@@H](NC(=O)[C@H](Cc1c[nH]cn1)NC(=O)[C@@H](NC(=O)[C@H](CC(C)C)NC(=O)CC(C)C)[C@@H](C)O)C(c1ccccc1)c1ccccc1)[C@@H](C)CC)C(=O)N(C)[C@@H](Cc1ccccc1)C(N)=O) [Isovaleric Acid-L-T-H-[Dpa]-P-L-I-[Lys(Ahx_Palm)]-[(Me)Phe]-NH2] | 764
9 | Isovaleryl-[dR]TH[Dip]PAIK([AEEA-AEEA-Ahx-C18 diacid])[β3hF][dK]-NH2 (SMILES CC[C@H](C)[C@H](NC(=O)[C@H](C)NC(=O)[C@@H]1CCCN1C(=O)[C@@H](NC(=O)[C@H](Cc1c[nH]cn1)NC(=O)[C@@H](NC(=O)[C@@H](CCCNC(=N)N)NC(=O)CC(C)C)[C@@H](C)O)C(c1ccccc1)c1ccccc1)C(=O)N[C@@H](CCCCNC(=O)COCCOCCNC(=O)COCCOCCNC(=O)CCCCCNC(=O)CCCCCCCCCCCCCCCCC(=O)O)C(=O)N[C@H](CC(=O)N[C@H](CCCCN)C(N)=O)Cc1ccccc1) [Isovaleric Acid-[(D)Arg]-T-H-[Dpa]-P-A-I-[Lys(1PEG2_1PEG2_Ahx_C18_Diacid)]-[bhPhe]-[(D)Lys]-NH2] | 732
10 | Isovaleryl-ETH[Dip]PAI[dK]K(Ac)-NH2 [Isovaleric Acid-E-T-H-[Dpa]-P-A-I-[(D)Lys]-[Lys(Ac)]-NH2] | 814

Second part, the binder after the results:

Row | FPN EC50 [nM] | Binder
11 | 34.2 | Isovaleryl-ETH[Dip]P[tBuAlanine]IK([Ahx-Palmitoyl])[β3hF]-NH2 [Isovaleric Acid-E-T-H-[Dpa]-P-[t-BuAlanine]-I-[Lys(Ahx_Palm)]-[bhPhe]-NH2]
12 | 69.7 | Isovaleryl-ETH[Dip]P[DiethylGly]IK([Ahx-Palmitoyl])[β3hF]-NH2 [Isovaleric Acid-E-T-H-[Dpa]-P-[DiethylGly]-I-[Lys(Ahx_Palm)]-[bhPhe]-NH2]
13 | 199 | Isovaleryl-ETH[Dip]PVIK([Ahx-Palmitoyl])[β3hF]-NH2 (SMILES CCCCCCCCCCCCCCCC(=O)NCCCCCC(=O)NCCCC[C@H](NC(=O)[C@@H](NC(=O)[C@@H](NC(=O)[C@@H]1CCCN1C(=O)[C@@H](NC(=O)[C@H](Cc1c[nH]cn1)NC(=O)[C@@H](NC(=O)[C@H](CCC(=O)O)NC(=O)CC(C)C)[C@@H](C)O)C(c1ccccc1)c1ccccc1)C(C)C)[C@@H](C)CC)C(=O)N[C@H](CC(N)=O)Cc1ccccc1) [Isovaleric Acid-E-T-H-[Dpa]-P-V-I-[Lys(Ahx_Palm)]-[bhPhe]-NH2]
14 | 71.2 | Isovaleryl-ETH[Dip][ButanoicP][β3hF]K([Ahx-Palmitoyl])-NH2 (SMILES CCCCCCCCCCCCCCCC(=O)NCCCCCC(=O)NCCCC[C@H](NC(=O)C[C@H](Cc1ccccc1)NC(=O)CCC[C@@H]1CCCN1C(=O)[C@@H](NC(=O)[C@H](Cc1c[nH]cn1)NC(=O)[C@@H](NC(=O)[C@H](CCC(=O)O)NC(=O)CC(C)C)[C@@H](C)O)C(c1ccccc1)c1ccccc1)C(N)=O) [Isovaleric Acid-E-T-H-[Dpa]-[ButanoicP]-[bhPhe]-[Lys(Ahx_Palm)]-NH2]
15 | 40.3 | Isovaleryl-ETH[Dip]P[Tle]IK([Ahx-Palmitoyl])[β3hF]-NH2 (SMILES CCCCCCCCCCCCCCCC(=O)NCCCCCC(=O)NCCCC[C@H](NC(=O)[C@@H](NC(=O)[C@@H](NC(=O)[C@@H]1CCCN1C(=O)[C@@H](NC(=O)[C@H](Cc1c[nH]cn1)NC(=O)[C@@H](NC(=O)[C@H](CCC(=O)O)NC(=O)CC(C)C)[C@@H](C)O)C(c1ccccc1)c1ccccc1)C(C)(C)C)[C@@H](C)CC)C(=O)N[C@H](CC(N)=O)Cc1ccccc1) [Isovaleric Acid-E-T-H-[Dpa]-P-[t-BuGly]-I-[Lys(Ahx_Palm)]-[bhPhe]-NH2]
16 | 427 | Isovaleryl-ETH[Dip]P[(n-hexyl)Gly]IK([Ahx-Palmitoyl])[β3hF]-NH2 [Isovaleric Acid-E-T-H-[Dpa]-P-[(n-hexyl)Gly]-I-[Lys(Ahx_Palm)]-[bhPhe]-NH2]
17 | 150 | Isovaleryl-ETH[Dip]P[hLeu]IK([Ahx-Palmitoyl])[β3hF]-NH2 (SMILES CCCCCCCCCCCCCCCC(=O)NCCCCCC(=O)NCCCC[C@H](NC(=O)[C@@H](NC(=O)[C@H](CCC(C)C)NC(=O)[C@@H]1CCCN1C(=O)[C@@H](NC(=O)[C@H](Cc1c[nH]cn1)NC(=O)[C@@H](NC(=O)[C@H](CCC(=O)O)NC(=O)CC(C)C)[C@@H](C)O)C(c1ccccc1)c1ccccc1)[C@@H](C)CC)C(=O)N[C@H](CC(N)=O)Cc1ccccc1) [Isovaleric Acid-E-T-H-[Dpa]-P-[hLeu]-I-[Lys(Ahx_Palm)]-[bhPhe]-NH2]
18 | 2290 | Isovaleryl-LTH[Dip]P[(Me)Leu]IK([Ahx-Palmitoyl])[NMeF]-NH2 [Isovaleric Acid-L-T-H-[Dpa]-P-[(Me)Leu]-I-[Lys(Ahx_Palm)]-[(Me)Phe]-NH2]
19 | 2760 | Isovaleryl-LTH[Dip]P[(Me)Leu]IK([Ahx-Palmitoyl])L-NH2 [Isovaleric Acid-L-T-H-[Dpa]-P-[(Me)Leu]-I-[Lys(Ahx_Palm)]-L-NH2]
